According to the supplement of paper PMC11780869:

System: Bacillus subtilis
Test: cleaved RNA product abundance (RNA/gDNA barcode ratio) relative to median wild-type variant (ratio to wild type); higher = more accumulation of the downstream cleavage product
Settings: cleavage site: cggR-gapA (positions -7 to +36 mutated)
Procedure, shortened: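 In LB at 37°C, B. subtilis cultures went from OD600 0.0003 to 0.3. Their chromosomes held barcoded reporter mRNAs, truncated aprE or tetM, with RNase Y cleavage-site windows mutagenized via oligos at a 9% error rate. Cleaved RNA, chosen by gel, was reverse transcribed and barcode-sequenced alongside genomic DNA barcodes with UMI collapsing, giving a per-construct RNA:gDNA ratio scaled to the median construct with the unmutated site. This scaled ratio is termed cleaved product abundance.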

[1] = experiment (reporter, strain, medium): exp 2b: truncated aprE reporter, strain BJT200
[2] = experiment (reporter, strain, medium): exp 4a: truncated aprE reporter, strain BJT201 with 2% xylose (RNase J1 expressed)

Row | Sequence | cleaved RNA product abundance [1] | cleaved RNA product abundance [2] | cleaved RNA product abundance (experiment (reporter, strain, medium): exp 6: tetM reporter, strain 168)
1 | ACAGACGAAGGAGCCGCAAAGAAGTTATTAAGGCATGAATAATCCTTCAATATAAATATCTCTCACTTATTTAAA | 0.115 | 0.13 | –
2 | ACAGACGAAGGAGCCGCAAAGAAGTTATTAAGGCATGAATAATCGCTCAATATAAATATCTCTCACTTATTTAAA | – | 0.0686 | –
3 | ACAGACGAAGGAGCCGCAAAGAAGTTATTAAGGCATGAATAATCTCTCAATATAAATATCTCTCACTTATTTAAA | 0.0853 | 0.125 | –
4 | ACAGACGAAGGAGCCGCAAAGAAGTTATTAAGGCATGAATAATTCCTCAATATAAATATCTCTCACTTATTTAAA | 0.107 | 0.133 | –
5 | ACAGACGAAGGAGCCGCAAAGAAGTTATTAAGGCATGAATACTCCCTCAATATAAATATCTCTCACTTATTTAAA | – | 0.072 | –
6 | ACAGACGAAGGAGCCGCAAAGAAGTTATTAAGGCATGAATATTCCCTCAATATAAATATCTCTCACTTATTTAAA | 0.119 | 0.144 | –
7 | ACAGACGAAGGAGCCGCAAAGAAGTTATTAAGGCATGAATTATCCCTCAATATAAATATCTCTCACTTATTTAAA | 0.0689 | 0.132 | –
8 | ACAGACGAAGGAGCCGCAAAGAAGTTATTAAGGCATGACTAATCCCTCAATATAAATATCTCTCACTTATTTAAA | 0.101 | 0.102 | –
9 | ACAGACGAAGGAGCCGCAAAGAAGTTATTAAGGCATGATTAATCCCTCAATATAAATATCTCTCACTTATTTAAA | 0.125 | 0.15 | –
10 | ACAGACGAAGGAGCCGCAAAGAAGTTATTAAGGCATTAATAATCCCTCAATATAAATATCTCTCACTTATTTAAA | 0.0847 | 0.108 | –
11 | ACAGACGAAGGAGCCGCAAAGAAGTTATTAAGGCGTGAATAATCCCTCAATATAAATATCTCTCACTTATTTAAA | 0.097 | 0.116 | –
12 | ACAGACGAAGGAGCCGCAAAGAAGTTATTAAGGCTTGAATAATCCCTCAATATAAATATCTCTCACTTATTTAAA | 0.115 | 0.11 | –
13 | ACAGACGAAGGAGCCGCAAAGAAGTTATTAAGGGAAAAATAATCCCTCAATATAAATATCTCTCACTTATTTAAA | – | 0.771 | –
14 | ACAGACGAAGGAGCCGCAAAGAAGTTATTAAGGGAACAATAATCCCTCAATATAAATATCTCTCACTTATTTAAA | – | 0.79 | –
15 | ACAGACGAAGGAGCCGCAAAGAAGTTATTAAGGGAAGAAAAATCCCTCAATATAAATATCTCTCACTTATTTAAA | 0.684 | 0.436 | –
16 | ACAGACGAAGGAGCCGCAAAGAAGTTATTAAGGGAAGAACAATCCCTCAATATAAATATCTCTCACTTATTTAAA | – | 0.73 | –
17 | ACAGACGAAGGAGCCGCAAAGAAGTTATTAAGGGAAGAATAAACCCTCAATATAAATATCTCTCACTTATTTAAA | 0.301 | 0.27 | –
18 | ACAGACGAAGGAGCCGCAAAGAAGTTATTAAGGGAAGAATAACCCCTCAATATAAATATCTCTCACTTATTTAAA | 0.283 | 0.369 | –
19 | ACAGACGAAGGAGCCGCAAAGAAGTTATTAAGGGAAGAATAAGCCCTCAATATAAATATCTCTCACTTATTTAAA | 0.433 | 0.823 | –

Row | Sequence | cleaved RNA product abundance [1] | cleaved RNA product abundance [2] | cleaved RNA product abundance (experiment (reporter, strain, medium): exp 6: tetM reporter, strain 168)
20 | ACAGACGAAGGAGCCGCAAAGAAGTTATTAAGGGAAGAATAATACCTCAATATAAATATCTCTCACTTATTTAAA | 0.101 | 0.156 | –
21 | ACAGACGAAGGAGCCGCAAAGAAGTTATTAAGGGAAGAATAATCACTCAATATAAATATCTCTCACTTATTTAAA | 0.109 | 0.104 | –
22 | ACAGACGAAGGAGCCGCAAAGAAGTTATTAAGGGAAGAATAATCCATCAATATAAATATCTCTCACTTATTTAAA | 0.114 | 0.105 | –
23 | ACAGACGAAGGAGCCGCAAAGAAGTTATTAAGGGAAGAATAATCCCACAATATAAAAATCTCTCACTTATTTAAA | – | 0.118 | –
24 | ACAGACGAAGGAGCCGCAAAGAAGTTATTAAGGGAAGAATAATCCCTAAATATAAAAATCTCTCACTTATTTAAA | – | 0.415 | –
25 | ACAGACGAAGGAGCCGCAAAGAAGTTATTAAGGGAAGAATAATCCCTAAATATAAATATCTCTCACTTATTTAAA | – | 0.326 | –
26 | ACAGACGAAGGAGCCGCAAAGAAGTTATTAAGGGAAGAATAATCCCTCAAAATAAATATCTCTCACTTATTTAAA | 0.17 | 0.182 | –
27 | ACAGACGAAGGAGCCGCAAAGAAGTTATTAAGGGAAGAATAATCCCTCAACATAAATATCTCTCACTTATTTAAA | 0.133 | 0.257 | –
28 | ACAGACGAAGGAGCCGCAAAGAAGTTATTAAGGGAAGAATAATCCCTCAATATAAAAATCTCTCACTTATTTAAA | – | 0.563 | –
29 | ACAGACGAAGGAGCCGCAAAGAAGTTATTAAGGGAAGAATAATCCCTCAATATAAAGATCTCTCACTTATTTAAA | – | 0.495 | –
30 | ACAGACGAAGGAGCCGCAAAGAAGTTATTAAGGGAAGAATAATCCCTCAATATAAATAACTCTCACTTATTTAAA | – | 0.434 | –
31 | ACAGACGAAGGAGCCGCAAAGAAGTTATTAAGGGAAGAATAATCCCTCAATATAAATATCTCTCACTTATTTAAA | 0.485 | 0.633 | 0.691
32 | ACAGACGAAGGAGCCGCAAAGAAGTTATTAAGGGAAGAATAATCCCTCAATATAAATTTCTCTCACTTATTTAAA | 0.471 | – | –
33 | ACAGACGAAGGAGCCGCAAAGAAGTTATTAAGGGAAGAATAATCCCTCAATATAATTATCTCTCACTTATTTAAA | 0.292 | 0.314 | –
34 | ACAGACGAAGGAGCCGCAAAGAAGTTATTAAGGGAAGAATAATCCCTCAATATATATATCTCTCACTTATTTAAA | 0.393 | 0.563 | –
35 | ACAGACGAAGGAGCCGCAAAGAAGTTATTAAGGGAAGAATAATCCCTCAATATGAATATCTCTCACTTATTTAAA | – | 0.0705 | –
36 | ACAGACGAAGGAGCCGCAAAGAAGTTATTAAGGGAAGAATAATCCCTCACTATAAATATCTCTCACTTATTTAAA | 0.187 | – | –
37 | ACAGACGAAGGAGCCGCAAAGAAGTTATTAAGGGAAGAATAATCCCTCAGTATAAATATCTCTCACTTATTTAAA | 0.153 | 0.29 | –
38 | ACAGACGAAGGAGCCGCAAAGAAGTTATTAAGGGAAGAATAATCCCTCATTATAAATATCTCTCACTTATTTAAA | 0.208 | 0.216 | –

Row | Sequence | cleaved RNA product abundance [1] | cleaved RNA product abundance [2] | cleaved RNA product abundance (experiment (reporter, strain, medium): exp 6: tetM reporter, strain 168)
39 | ACAGACGAAGGAGCCGCAAAGAAGTTATTAAGGGAAGAATAATCCCTCCATATAAATATCTCTCACTTATTTAAA | – | 0.202 | –
40 | ACAGACGAAGGAGCCGCAAAGAAGTTATTAAGGGAAGAATAATCCCTCGATATAAATATCTCTCACTTATTTAAA | – | 0.521 | –
41 | ACAGACGAAGGAGCCGCAAAGAAGTTATTAAGGGAAGAATAATCCCTCTATATAAATATCTCTCACTTATTTAAA | – | 0.239 | –
42 | ACAGACGAAGGAGCCGCAAAGAAGTTATTAAGGGAAGAATAATCCCTGAATATAAATATCTCTCACTTATTTAAA | – | 0.374 | –
43 | ACAGACGAAGGAGCCGCAAAGAAGTTATTAAGGGAAGAATAATCCCTTAATATAAATATCTCTCACTTATTTAAA | 1.05 | 0.952 | –
44 | ACAGACGAAGGAGCCGCAAAGAAGTTATTAAGGGAAGAATAATCCGTCAATATAAATATCTCTCACTTATTTAAA | 0.0722 | – | –
45 | ACAGACGAAGGAGCCGCAAAGAAGTTATTAAGGGAAGAATAATCCTTCAATATAAATATCTCTCACTTATTTAAA | 0.13 | 0.144 | –
46 | ACAGACGAAGGAGCCGCAAAGAAGTTATTAAGGGAAGAATAATCGCTCAATATAAATATCTCTCACTTATTTAAA | – | 0.114 | –
47 | ACAGACGAAGGAGCCGCAAAGAAGTTATTAAGGGAAGAATAATCTCTCAATATAAATATCTCTCACTTATTTAAA | 0.124 | 0.201 | –
48 | ACAGACGAAGGAGCCGCAAAGAAGTTATTAAGGGAAGAATAATGCCTCAATATAAATATCTCTCACTTATTTAAA | 0.0918 | 0.132 | –
49 | ACAGACGAAGGAGCCGCAAAGAAGTTATTAAGGGAAGAATAATTCCTCAATATAAATATCTCTCACTTATTTAAA | 0.165 | 0.21 | –
50 | ACAGACGAAGGAGCCGCAAAGAAGTTATTAAGGGAAGAATACTCCCTCAATATAAATATCTCTCACTTATTTAAA | 0.632 | 1.01 | –
51 | ACAGACGAAGGAGCCGCAAAGAAGTTATTAAGGGAAGAATAGTCCCTCAATATAAATATCTCTCACTTATTTAAA | – | 0.594 | –
52 | ACAGACGAAGGAGCCGCAAAGAAGTTATTAAGGGAAGAATATTCCCTCAATATAAATATCTCTCACTTATTTAAA | 0.797 | 0.603 | –
53 | ACAGACGAAGGAGCCGCAAAGAAGTTATTAAGGGAAGAATGATCCCTCAATATAAATATCTCTCACTTATTTAAA | – | 0.925 | –
54 | ACAGACGAAGGAGCCGCAAAGAAGTTATTAAGGGAAGAATTATCCCTCAATATAAATATCTCTCACTTATTTAAA | – | 0.771 | –
55 | ACAGACGAAGGAGCCGCAAAGAAGTTATTAAGGGAAGACTAATCCCTCAATATAAATATCTCTCACTTATTTAAA | – | 0.452 | –
56 | ACAGACGAAGGAGCCGCAAAGAAGTTATTAAGGGAAGCATAATCCCTCAATATAAATATCTCTCACTTATTTAAA | – | 0.551 | –
57 | ACAGACGAAGGAGCCGCAAAGAAGTTATTAAGGGAAGTATAATCCCTCAATATAAATATCTCTCACTTATTTAAA | 0.599 | – | –
